Laboratory results taken from US20260125649A1, “MEDIUM COMPOSITION AND METHOD FOR CULTURING MESENCHYMAL STEM CELLS” (ACADEMIA SINICA, priority 2018, published 2026).

Columns and labels:
Format in all cases: cell-based, human
Oct4, Sox2, c-Myc, Lin28 = assay: qPCR of pluripotency factors in MSCs; conditions: EpEX treatment
Description: (§1) The expression of let-7 was detected by qPCR. MSCs expressing EGFR shRNA, STAT3 shRNA or Lin28b shRNA were stimulated with EpEX. The expression of let-7 was detected by qPCR. […] Expression of pluripotency factors (Oct4, Sox2, c-Myc and Lin28) was examined by qPCR. MSCs were transfected with a let-7 mimetic, and then stimulated with EpEX. Protein levels of pluripotency factors (Oct4, Sox2, c-Myc, and Lin28) were examined by Western blotting.
(§2) Total RNA was extracted using TRI reagent (Invitrogen, CA, USA), and 5 μg of total RNA was reverse transcribed using oligo (dT) primer (Fermentas, Glen Burnie, MD, USA) with SuperScript III reverse transcriptase (Invitrogen). Quantitative real time RT-PCR (qPCR) was performed on cDNA using the Light Cycler 480 SYBR Green I Master kit (Roche Applied Science, Indianapolis, IN) and the LightCycler480 System (Roche Applied Science). The gene expression levels of each sample were normalized to the expression levels of glyceraldehyde 3-phosphate dehydrogenase (GAPDH).

[1] = system: HMGA2 binding to the promoters of Oct4 and Sox2; assay: ChIP of HMGA2 binding to promoters of pluripotency genes; conditions: EpEX treatment, data not shown
Description: MSCs were treated with EpEX (3 μg/mL), and the expression of HMGA2 was detected by immunofluorescence staining. […] To detect the binding of HMGA2 to Oct4 promoters, cross-linked DNA was isolated and then amplified with specific primers by qPCR. […] The gene expression of HMGA2 is detected by qPCR. MSCs were treated with let-7 mimetic and then treated with EpEX (3 μg/mL) for 12 h. The protein abundance of HMGA2 was examined by Western blotting.
We performed chromatin immunoprecipitation (ChIP) with the Pierce™ Magnetic ChIP Kit (Thermo Fisher Scientific), to according the manufacturer's instructions. In brief, the protein-DNA complexes were cross-linked with 1% formaldehyde and quenched by adding glycine to a final concentration of 200 mM. The chromatin complexes were sonicated to an average size of 250 bp by a MISONIX Sonicator 3000. For immunoprecipitation, 4 μg of […] (Novus) was incubated with protein G beads (Invitrogen) for 4 h. The immunocomplexes were further incubated with chromatin for another 4 h. […]
(§3) The immunoprecipitated DNA was recovered by a PCR purification kit (Thermo Fisher Scientific), and the purified DNA was subjected to real time quantitative PCR for further analysis. Immunoprecipitation/input was calculated for each gene and each gene was further normalized to the level of mouse β-actin promoter. […]

[2] = system: EpICD binding to the Oct4 promoter; assay: ChIP of EpICD binding to the Oct4 promoter; conditions: EpEX 3 μg/mL, ChIP-qPCR
Description: FIG. 12. EpEX increases the binding of EpICD to the promoter of Oct4 by inhibiting let7. (A) MSCs were transfected with let7 inhibitor or mimetics then treated with EpEX (3 μg/mL). Binding of EpICD to the Oct4 promoter was examined by chromatin immunoprecipitation (ChIP). EpICD was pulled down by a specific anti-EpICD antibody. The cross-linked DNA was isolated and then probed by qPCR with specific primers for the Oct4 promoter. (B) MSCs were transfected with let7 inhibitor or mimetics then treated with EpEX (3 μg/mL). Binding of EpICD-HMGA2 was examined by sequential ChIP. EpICD was pulled down by a specific anti-EpICD antibody, followed by pull-down with a HMGA2 antibody. To detect bound Oct4 promoter, the cross-linked DNA was isolated and then amplified by qPCR with specific primers.
We performed chromatin immunoprecipitation (ChIP) with the Pierce™ Magnetic ChIP Kit (Thermo Fisher Scientific), to according the manufacturer's instructions. In brief, the protein-DNA complexes were cross-linked with 1% formaldehyde and quenched by adding glycine to a final concentration of 200 mM. […]
as §3

let-7 = let-7 expression by qPCR; conditions: EpEX 3 μg/mL
Description: as §1, §2

γ-secretase = γ-secretase activity assay in MSC lysates; conditions: EpEX-stimulated MSCs
Description: FIG. 9. EpEX induces the phosphorylation and activity of TACE and γ-secretase. MSCs were stimulated by EpEX for the indicated times, and the activity of TACE and γ-secretase were detected. MSCs were stimulated by EpEX (3 μg/mL) for the indicated times. Western blot analysis was performed to detect the phosphorylation of TACE and Presenilin 2.
ADAM17 activity was measured using the InnoZyme ADAM17 activity kit (Calbiochem). In brief, cell lysates were harvested and loaded into a TACE antibody-coated plate. After 1 h incubation, the lysate was removed and the plate was washed twice. Substrate was added into each well for 5 h at 37° C. After incubation, the fluorescence signal of the reaction product was detected at excitation of 324 nm and emission of 405 nm. For the detection of γ-secretase activity, cell lysates were extracted and 500 μg protein was used. γ-secretase activity was detected by γ-secretase substrate (35 μM).

B1: EpEX: extracellular domain of human EpCAM, 265 amino acids in length (SEQ ID NO: 2) (protein, listed as Homo sapiens)
chain: MAPPQVLAFGLLLAAATATFAAAQEECVCENYKLAVNCFVNNNRQCQCTSVGAQNTVICSKLAAKCLVMKAEMNGSKLGRRAKPEGALQNNDGLYDPDCDESGLFKAKQCNGTSMCWCVNTAGVRRTDKDTEITCSERVRTYWIIIELKHKAREKPYDSKSLRTALQKEITTRYQLDPKFITSILYENNVITIDLVQNSSQKTQNDVDIADVAYYFEKDVKGESLFHSKKMDLTVNGEQLDLDPGQTLIYYVDEKAPEFSMQGLK
With B1 the “expression of the gene for Oct4” value (Oct4, Sox2, c-Myc, Lin28) was “can induce”, the “HMGA2 binding to the promoters of Oct4 and Sox2” value [1] was “can induce” and the “binding of EpICD to the promoter of Oct4” value [2] was “increases”. The “level of let-7” value (let-7) was “decreased” and the “activation of γ-secretase” value (γ-secretase) was “induced”.
